The results in this text go back to patent publication US20230149465A1.

The target in the test is human IFNγ (human) (UniProt P01579). Kind of test: cell-based or functional assay.
Chain of UniProt P01579 (P01579 24-166 limits assumed): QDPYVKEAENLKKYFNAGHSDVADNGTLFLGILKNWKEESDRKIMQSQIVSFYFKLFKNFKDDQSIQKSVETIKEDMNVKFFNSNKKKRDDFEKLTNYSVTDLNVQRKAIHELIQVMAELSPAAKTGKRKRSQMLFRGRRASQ

In the case of “Amg-HL, anti-IFNγ scFv from AMG811 (heavy chain variable region to light chain variable region)”, the inhibition of IFNγ signaling at dilution 0.5 of supernatant, HEK-Blue IFNγ reporter cells turned out to be 80%.
